In this test the target is T1, mouse DLK1 (moDLK1) (mouse, UniProt Q09163).
T1 chain: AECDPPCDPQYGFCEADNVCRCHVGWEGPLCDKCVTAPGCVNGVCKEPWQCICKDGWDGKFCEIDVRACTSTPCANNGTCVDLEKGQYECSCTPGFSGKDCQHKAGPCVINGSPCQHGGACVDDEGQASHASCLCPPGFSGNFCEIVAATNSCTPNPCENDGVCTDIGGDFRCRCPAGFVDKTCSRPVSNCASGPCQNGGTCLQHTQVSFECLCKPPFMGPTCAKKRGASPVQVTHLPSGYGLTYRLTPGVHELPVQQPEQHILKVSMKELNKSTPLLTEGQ

Consider 1 molecule from patent publication US20260297185 (published 2026).

B1: I18 (antibody, V domains shown)
VH: QVQLKESGPGLVAPSQSLSITCTVSGFSLILYGVHWVRQPPGKGLEWLGLIWAGGSTNYNSALMSRLSISKDNSKSQVFLKMNSLQTDDTAMYYCVRKHSNYLAMDYWGQGTSVTVSS
VL: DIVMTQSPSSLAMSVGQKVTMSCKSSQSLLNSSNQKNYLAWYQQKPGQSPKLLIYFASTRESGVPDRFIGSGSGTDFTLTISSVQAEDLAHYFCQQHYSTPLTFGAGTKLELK
Take B1: the binding result was “no binding”.
